The text below walks through data of US9113649B2, “Food additive comprising an amidase for detoxifying ochratoxin” (DuPont Nutrition Biosciences ApS, priority 2010, dated 2015).

Data set [1] has as its target Aspergillus niger amidase 2 sig (full length 480 aa, intracellular fraction, SEQ ID NO: 1) (Aspergillus niger, UniProt A2R2V4). The conditions noted are these: pH 7. As to the method: The reaction contained 60 μl mops-NaOH (0.2M, pH7.0), 20 mM CaCl2, 20 mM EDTA, amidase 2 sig (0.46 μg protein) extracted from A. niger cell harboring the amidase gene, 2 μl 25 μg/ml OTA and water to a final volume of 120 μl. The reaction was performed at 37° C. for 30 min and stopped by adding 150 μl acetonitrile containing 0.2% acetic acid. OTA and its product OT-alpha (=ODα) were analyzed on RP-HPLC on C18 column with an injection of 5 μl. Positive control (PC) contained no additives other than the buffer the amidase and OTA. Blank contained only buffer and OTA.

Data set [2] is classed as biochemical. The conditions noted are these: same concentration, optimum conditions, one hour. On the procedure:
The enzyme solution of Amidase 2 mat obtained after AEX was tested on ochratoxin B at the same concentration under optimum conditions for one hour. The degrading rate with ochratoxin B was 8% compared to OTA.

A short description of data set [3]: OTA degradation as a function of amidase 2 mat concentration. It is filed as biochemical. As to the method:
The amidase used was purified from the broth of transformant 13 (438aa protein referred to as amidase 2 mat).
Ochratoxin A (OTA) degrading activity of amidase 2 mat purified from the fermentation broth of A. niger harboring the amidase 2 gene as a function of its concentration is shown in FIG. 15. It can be seen from FIG. 15 that the degradation of OTA was amidase 2 mat concentration dependent. One can also see that after 30 min with an amidase 2 mat concentration of 160 ng/ml the OTA decreased by 83%. From the linear region of FIG. 15 the calculated specific activity for amidase 2 mat was 900 nanomole OTA hydrolyzed per min per mg protein at pH7.0 and 40° C. at an OTA concentration of 1 μg/ml reaction mixture. The reaction for FIG. 15 was performed in 0.1 Mops-NaOH (pH 7.0) and 40° C. for 30 min before it was stopped by adding equal volume of acetonitrile containing 0.2% acetic acid and analyzed on RP-HPLC on a C18 column as described in the Material and Method section.

Data set [4] can be described thus: sensitivity of OTA hydrolysis to CaCl2 and EDTA. As to conditions: for inhibition of activity in the hydrolysis of OTA: 8 mM CaCl2. Type of data set: biochemical. As to the method: One protease inhibitor cocktail (PIC) tablet (Roche Applied Science, Mannhein, Germany) was dissolved in 1.5 mL. milliQ water to obtain a 7× stock solution. For formamidase inhibition assay, instead of 100 μL milliQ water normally employed, 20 μL of 7×PIC stock solution and 80 μL of milliQ water were mixed with other components listed in formamidase activity assay section. For OTA degrading activity, 35 μL 7×PIC solution were mixed with 210 μL OTA 1 μg/mL and 5 μL enzyme solution. […] For controls, inhibitor solution is replaced either by milliQ water for formamidase activity assay or MES-NaOH pH7 buffer for OTA degrading activity.
Also it is known that the OTA degrading activity in the Amano™ lipase product is sensitive to EDTA.
[…] The reaction was performed at 37° C. for 30 min and stopped by adding 150 μl acetonitrile containing 0.2% acetic acid. OTA and its product OT-alpha (=ODα) were analyzed on RP-HPLC on C18 column with an injection of 5 μl. Positive control (PC) contained no additives other than the buffer the amidase and OTA. Blank contained only buffer and OTA.

Data set [5] is described as follows: degradation of OTA in milk by amidase 2 mat. The conditions noted are these: light milk; 47 ppb at start; 0.22 μg protein; 40° C., 2.5 hr. It is filed as biochemical. On the procedure:
Light milk (1.5% fat, protein 3.4 g, carbohydrate 4.7 g Calcium 120 mg, Phosphorus 95 mg in 100 ml) from Aria Foods Amba (Aarhus, Denmark) 0.15 ml, 3 μl OTA (2.5 μg/ml), 7.5 μl purified amidase 2 mat (from the broth of A. niger harboring the amidase 2 gene) containing 0.22 μg protein were mixed and reacted at 40° C. for 2.5 hr. The OTA decreased from 47 ppb at start to undetectable level (<2 ppb) after 2.5 hr incubation. OTA analysis by HPLC was described in the materials and methods section above.

A short description of data set [6]: detoxification of OTA in corn flour by amidase 2 mat. Type of data set: biochemical. The conditions noted are these: from 38 ppm, 30° C., 20 hr, pH7.0. As to the method:
(§1) The reaction mixture in 1.5 ml eppendorf tubes (C1-3) comprised 60 mg corn flower, 200 μl Mops-NaOH (0.2 M pH7.0), 40 μl amidase 2 mixture (which was mixture of an equal volume of the broth of A. niger transformant having amdiase 2 gene 3, 4, 7, 8, 10, 11, 13, 14, and 15), 20 μl OTA (0.5 mg/ml). Total volume of the three components was 260 μl; final OTA was 38 μg/ml or 38 ppm (ppm, parts per million). Control: Tubes of Controls (C-4-6) were the same as C1-3 except that the amidase preparation (the broth) was replaced with water.
(§2) The reaction was performed at 30° C. with skaking for 20 hr before the addition of equal volume of acetonitrile 260 μl containing 0.2% acetic acid to stop the reaction and to extract the OTA. After centrifugation and filter, the filtrate was analyzed on HPLC.

Data set [7] in a line: detoxification of OTA in corn-soy based feed by amidase 2 mat. Type of data set: biochemical. As to conditions: from 38 ppm, 20 hr incubation. As to the method: as §1, §2
The tests of amidase 2 mat with soy-corn based feed (whose composition is given in Table 3) contaminated with OTA was exactly as the test with corn flour, that is, tubes S1-3 (experimental) were with the broth while for tubes S 5-6 (controls) water replaced the broth. After 20 hr incubation, the OTA level was reduced from 38 ppm to 6.6 ppm, a reduction of 6 times or 82%.

Chain of Aspergillus niger amidase 2 sig (full length 480 aa, intracellular fraction, SEQ ID NO: 1) (A2R2V4 other isoform, or with tags, fused parts or gaps): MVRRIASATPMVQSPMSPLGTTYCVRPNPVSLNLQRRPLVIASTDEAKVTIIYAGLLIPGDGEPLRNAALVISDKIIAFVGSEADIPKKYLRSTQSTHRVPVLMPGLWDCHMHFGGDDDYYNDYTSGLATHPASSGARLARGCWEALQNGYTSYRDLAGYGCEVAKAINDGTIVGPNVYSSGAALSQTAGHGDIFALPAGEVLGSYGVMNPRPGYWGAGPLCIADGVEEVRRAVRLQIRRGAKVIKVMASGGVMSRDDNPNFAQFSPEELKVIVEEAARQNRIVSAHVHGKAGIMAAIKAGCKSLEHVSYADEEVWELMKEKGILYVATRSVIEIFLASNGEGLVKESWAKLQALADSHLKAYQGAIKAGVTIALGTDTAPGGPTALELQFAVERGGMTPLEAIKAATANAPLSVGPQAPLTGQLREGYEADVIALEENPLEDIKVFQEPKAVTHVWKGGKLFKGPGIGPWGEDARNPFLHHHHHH

For the molecule `O=C(O)CN(CCN(CC(=O)O)CC(=O)O)CC(=O)O` [EDTA], the “inhibition of amidase 2 sig (OTA degradation)” value in data set [1] was “no inhibition”.

B1: amidase 2 mat: secreted mature 438 amino acid amidase 2 from A. niger, MW about 47 kDa, N-terminal 42 amino acids cleaved (protein)
chain: STDEAKVTIIYAGLLIPGDGEPLRNAALVISDKIIAFVGSEADIPKKYLRSTQSTHRVPVLMPGLWDCHMHFGGDDDYYNDYTSGLATHPASSGARLARGCWEALQNGYTSYRDLAGYGCEVAKAINDGTIVGPNVYSSGAALSQTAGHGDIFALPAGEVLGSYGVMNPRPGYWGAGPLCIADGVEEVRRAVRLQIRRGAKVIKVMASGGVMSRDDNPNFAQFSPEELKVIVEEAARQNRIVSAHVHGKAGIMAAIKAGCKSLEHVSYADEEVWELMKEKGILYVATRSVIEIFLASNGEGLVKESWAKLQALADSHLKAYQGAIKAGVTIALGTDTAPGGPTALELQFAVERGGMTPLEAIKAATANAPLSVGPQAPLTGQLREGYEADVIALEENPLEDIKVFQEPKAVTHVWKGGKLFKGPGIGPWGEDARNPFL
modifications: Aspergillus niger
notes: secreted mature 438 amino acid amidase 2 from A. niger, MW about 47 kDa, N-terminal 42 amino acids cleaved
B1: the “degrading rate with ochratoxin B compared to OTA” value in data set [2] was determined as 8%. The OTA decrease in data set [3] (160 ng/ml amidase 2 mat, 30 min, pH 7.0, 40° C.) turned out to be 83%. Also, the specific activity in data set [3] (pH7.0 and 40° C., OTA 1 μg/ml reaction mixture, calculated from linear region of FIG. 15) was 900 nanomole OTA hydrolyzed per min per mg protein. The “inhibition of activity in the hydrolysis of OTA” value in data set [4] (enzyme purified from the Amano™ lipase product) and in data set [4] (enzyme purified from the broth of transgenic A. niger) was “around 40%” each time. In addition, the “inhibition by extra EDTA” value in data set [4] (data not shown) was “inhibited”. Further, the OTA after incubation in data set [5] is under 2 ppb. The “remaining OTA” value in data set [6] is “less than 2 ppb”. Also, the “OTA level after incubation” value in data set [7] is recorded as 6.6 ppm.
